In one assay the target is T1, recombinant human BMP-2 (human, UniProt P12643 283-396).
T1 construct: also called rhBMP-2
Nature of the assay: ELISA, rhBMP-2 coated 50 nM.

Assay [1] addresses T2, bovine type I collagen (bovine, UniProt P02453 178-1191; P02465 89-1102).
T2 construct: PureCol, Advanced BioMatrix; coated on the plate; also called collagen I; PureCol
Nature of the assay: ELISA on coated bovine type I collagen (10 µg/mL), FabCol titrated, HRP-anti-human Fab [panel C]. As to the method: (§1) ELISA plates (NUNC MaxiSorp, ThermoFisher Scientific) were coated overnight with 10 μg/mL of bovine type I collagen (PureCol, Advanced BioMatrix, San Diego CA, USA) at room temperature. The plate was further blocked using 2% bovine serum albumine (BSA) for 2 h at room temperature. […] The plate was washed thrice in PBST, and an horseradish peroxidase-conjugated anti-human Fab antibody (Jackson ImmunoResearch,) was used to detect bound FabCol variants. […] Absorbance at 450 nm was read using […], and corrected using the absorbance at 570 nm. Curve fits and dissociation constant KD were computed using Prism (GraphPad Software Inc., USA).

Assay [2] has as its target T2, bovine type I collagen. Briefly: ELISA on coated bovine type I collagen (10 µg/mL), FabCol titrated 0.01-30 nM, HRP-anti-human Fab [panel C]. As to the method:
as §1
Background: In an ELISA, binding on a coated surface is turned into a signal by an enzyme label.

A further assay has as its target T3, mVEGF-C (mouse, UniProt P97953).
T3 construct: also called mouse wild-type VEGF-C
T3 sequence (growth factor chain, looked up): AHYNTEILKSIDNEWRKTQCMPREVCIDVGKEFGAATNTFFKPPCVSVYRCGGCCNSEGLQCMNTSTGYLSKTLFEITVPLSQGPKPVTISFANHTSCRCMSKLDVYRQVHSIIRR
Nature of the assay: ELISA; growth factors coated at 100 nM, FabCol variants at 100 nM in solution, HRP-anti-human Fab [panel F].

For assay [3], the target named is T4, placental growth factor (PlGF)-2 (human, UniProt P49763-3 19-170).
T4 construct: mature; Purchased in mature form
T4 sequence (looked up): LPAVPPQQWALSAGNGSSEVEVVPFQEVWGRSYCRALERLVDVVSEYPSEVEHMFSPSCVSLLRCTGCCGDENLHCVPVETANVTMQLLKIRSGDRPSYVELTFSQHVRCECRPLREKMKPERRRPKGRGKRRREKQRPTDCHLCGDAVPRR
The description is as above.

Assay [4] concerns the target T5, placental growth factor (PlGF)-1 (human, UniProt P49763-2 19-149).
T5 construct: mature; Purchased in mature form
T5 sequence (looked up): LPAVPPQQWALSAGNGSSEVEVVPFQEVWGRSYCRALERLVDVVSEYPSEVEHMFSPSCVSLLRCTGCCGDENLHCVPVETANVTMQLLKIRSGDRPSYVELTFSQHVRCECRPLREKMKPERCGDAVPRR
The assay is described as above.

Assay [5] has as its target T6, platelet-derived growth factor (PDGF)-BB (human, UniProt P01127 82-190).
T6 construct: mature; Purchased in mature form
The description is as above.

The target of assay [6] is T7, vascular endothelial growth factor (VEGF)-A165 (human, UniProt P15692-4 27-191).
T7 construct: mature; Purchased in mature form, not glycosylated
The assay is described as above.

The target in assay [7] is T2, bovine type I collagen. Nature of the assay: ELISA on coated bovine type I collagen (10 µg/mL), FabCol titrated, HRP-anti-human Fab; table headed 'Estimated KD (nM)' [panel C]. As to the method:
as §1

Assay [8] deals with T2, bovine type I collagen. Nature of the assay: ELISA on coated bovine type I collagen (10 µg/mL), FabCol titrated 0.01-30 nM, HRP-anti-human Fab; table headed 'Estimated KD (nM)' [panel C]. The method, then:
as §1

Assay [9] deals with T8, vascular endothelial growth factor (VEGF)-A121 (human, UniProt P15692-9 27-147).
T8 construct: mature; Purchased in mature form, not glycosylated
T8 sequence (looked up): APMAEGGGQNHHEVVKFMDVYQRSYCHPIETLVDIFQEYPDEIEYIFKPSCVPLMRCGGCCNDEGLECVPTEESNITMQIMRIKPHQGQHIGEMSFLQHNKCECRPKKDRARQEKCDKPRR
Briefly: ELISA, peptide coated. In short, it runs like this: (§2)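 Wells coated with 10 μg/mL laminin α3/α4/α5 LG-domain peptides, BSA-coated wells as non-binding control, blocked with 2% BSA PBS-T. Recombinant human GFs added at 1 μg/mL; bound GF detected with GF-specific biotinylated antibody plus streptavidin-HRP (n=4, mean±SEM).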

Assay [10] deals with T5, placental growth factor (PlGF)-1. Briefly: ELISA, peptide coated. In short, it runs like this:
as §2

In assay [11] the target is T4, placental growth factor (PlGF)-2. Briefly: ELISA, peptide coated, GF 1 µg/mL. The method in brief:
as §2

For assay [12], the target named is T6, platelet-derived growth factor (PDGF)-BB. Nature of the assay: ELISA, peptide coated, GF 1 µg/mL. In short, it runs like this: as §2
For assay [13], the target named is T9, fibroblast growth factor (FGF)-2 (human, UniProt P09038 143-288).
T9 construct: mature; Purchased in mature form
T9 sequence (P09038 143-288): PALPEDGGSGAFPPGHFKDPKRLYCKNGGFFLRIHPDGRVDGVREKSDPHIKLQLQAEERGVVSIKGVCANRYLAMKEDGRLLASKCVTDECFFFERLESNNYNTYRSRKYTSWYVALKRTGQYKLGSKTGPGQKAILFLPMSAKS
Briefly: ELISA, peptide coated, GF 1 µg/mL. The method in brief:
as §2

Assay [14] concerns the target T7, vascular endothelial growth factor …. Nature of the assay: ELISA, peptide coated, GF 1 µg/mL. The method in brief:
as §2

For assay [15], the target named is T10, recombinant human syndecan-1 (human, UniProt P18827 23-254, limits assumed).
T10 construct: Histidine tag of unstated position and length
T10 sequence (looked up): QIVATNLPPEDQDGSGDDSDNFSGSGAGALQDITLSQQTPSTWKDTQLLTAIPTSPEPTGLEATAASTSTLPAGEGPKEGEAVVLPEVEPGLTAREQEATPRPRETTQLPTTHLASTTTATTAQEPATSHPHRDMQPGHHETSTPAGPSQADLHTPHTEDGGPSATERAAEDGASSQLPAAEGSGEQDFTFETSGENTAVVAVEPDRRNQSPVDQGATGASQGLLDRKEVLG
Nature of the assay: ELISA, peptide coated, anti-His detection. The method, then: (§3) ELISA tests were performed as described above. In brief, ELISA plates were coated with 1 μg/mL laminin peptide (sequences are described in Table 1, chemically synthesized by Genscript) in PBS for 2 hrs at 37° C. 1 μg/mL of BSA served as non-binding protein control. After blocking with 2% BSA PBS-T solution, 1 μg/mL of the recombinant human syndecan-1, syndecan-2, syndecan-3, syndecan-4 (all syndecan proteins are histidine-tagged; SinoBiological) were added. Bound GF was detected with anti-histidine tag antibody (1:1000 dilution, BioLegend).

The target of assay [16] is T11, recombinant human syndecan-2 (human, UniProt P34741 19-144, limits assumed).
T11 construct: Histidine tag of unstated position and length
T11 sequence (P34741 19-144 limits assumed): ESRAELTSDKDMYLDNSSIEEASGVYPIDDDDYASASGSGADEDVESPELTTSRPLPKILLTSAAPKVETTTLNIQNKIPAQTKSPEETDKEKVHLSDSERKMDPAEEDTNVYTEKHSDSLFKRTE
Briefly: ELISA, peptide coated, anti-His detection. The method, then: as §3

In assay [17] the target is T12, recombinant human syndecan-3 (human, UniProt O75056 48-387, limits assumed).
T12 construct: Histidine tag of unstated position and length
T12 sequence (O75056 48-387 limits assumed): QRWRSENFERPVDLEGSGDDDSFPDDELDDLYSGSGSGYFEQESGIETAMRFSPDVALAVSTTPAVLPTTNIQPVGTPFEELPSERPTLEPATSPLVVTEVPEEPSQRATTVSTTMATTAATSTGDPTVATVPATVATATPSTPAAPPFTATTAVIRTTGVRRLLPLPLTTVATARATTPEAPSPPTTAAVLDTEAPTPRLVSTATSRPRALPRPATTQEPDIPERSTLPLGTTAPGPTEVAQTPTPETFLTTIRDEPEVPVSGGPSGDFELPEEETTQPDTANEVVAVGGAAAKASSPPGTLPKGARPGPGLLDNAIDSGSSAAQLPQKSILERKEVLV
Briefly: ELISA, peptide coated, anti-His detection. As to the method: as §3

For assay [18], the target named is T13, recombinant human syndecan-4 (human, UniProt P31431 19-145, limits assumed).
T13 construct: Histidine tag of unstated position and length
T13 sequence (looked up): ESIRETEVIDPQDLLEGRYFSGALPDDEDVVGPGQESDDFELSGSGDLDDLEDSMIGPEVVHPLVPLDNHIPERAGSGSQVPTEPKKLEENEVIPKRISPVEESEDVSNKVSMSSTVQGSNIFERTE
Nature of the assay: ELISA, peptide coated, anti-His detection. As to the method: as §3

Assay [19] addresses T14, recombinant human vWF A2 domain (human, UniProt P04275 1498-1665).
T14 construct: domain: A2
Briefly: ELISA, domain coated 50 nM. As to the method:
(§4) ELISA was performed as previously reported1. […] After blocking with 2% BSA solution containing PBS-T, 1 μg/mL of recombinant human VEGF-A121 (PeproTech), recombinant human VEGF-A145 (R & D Systems), or recombinant human VEGF-A165 (PeproTech) was added. Bound VEGF-A was detected with 1 μg/mL of mouse anti-human VEGF-A antibody (clone: 26503, R & D systems). After 60 min of incubation, horseradish peroxidase (HRP) conjugated goat anti-mouse antibody (1:2000 dilution, Dako) was added and incubated for another 60 min. Color development and the absorbance measurement were done as described above.

The target of assay [20] is T15, recombinant human vWF A3 domain (human, UniProt P04275 1683-1874).
T15 construct: domain: A3
Nature of the assay: ELISA, domain coated 50 nM. As to the method: as §4

A further assay concerns the target T16, human plasma-derived vWF (human, UniProt P04275 764-2813).
T16 construct: mature; also called plasma-derived purified vWF; von Willebrand factor
Briefly: ELISA, vWF coated 50 nM, VEGF-A 1 µg/mL. As to the method: as §4

In assay [21] the target is T17, recombinant human vWF A1 domain (human, UniProt P04275 1261-1468, limits assumed).
T17 construct: domain: A1; also called vWF A1 recombinant protein; recombinant A1 domain
Nature of the assay: ELISA, domain coated 50 nM, VEGF-A 1 µg/mL. The method, then: as §4

For assay [22], the target named is T8, vascular endothelial growth factor …. Nature of the assay: ELISA, HBD peptide coated. The method, then:
(§5) ELISA tests were performed as described above. […] After blocking with 2% BSA solution containing PBS-T, 1 μg/mL of the recombinant human proteins VEGF-A121, VEGF-A165, PlGF-1, PlGF-2, PDGF-BB, FGF-2, CXCL-12α and CXCL-12γ were added. 1 μg/mL of BSA served as non-binding protein control. Bound GF or chemokine was detected with biotinylated antibodies for human VEGF-A, PlGF, PDGF-BB, FGF-2, or CXCL-12 (R & D Systems). The antibodies were detected by streptavidin-HRP (R & D Systems). Color development and the absorbance measurement were done as described above.

In assay [23] the target is T5, placental growth factor (PlGF)-1. Nature of the assay: ELISA, HBD peptide coated. As to the method:
as §5

T2 sequence (P02453 178-1191, chain 1 of 2): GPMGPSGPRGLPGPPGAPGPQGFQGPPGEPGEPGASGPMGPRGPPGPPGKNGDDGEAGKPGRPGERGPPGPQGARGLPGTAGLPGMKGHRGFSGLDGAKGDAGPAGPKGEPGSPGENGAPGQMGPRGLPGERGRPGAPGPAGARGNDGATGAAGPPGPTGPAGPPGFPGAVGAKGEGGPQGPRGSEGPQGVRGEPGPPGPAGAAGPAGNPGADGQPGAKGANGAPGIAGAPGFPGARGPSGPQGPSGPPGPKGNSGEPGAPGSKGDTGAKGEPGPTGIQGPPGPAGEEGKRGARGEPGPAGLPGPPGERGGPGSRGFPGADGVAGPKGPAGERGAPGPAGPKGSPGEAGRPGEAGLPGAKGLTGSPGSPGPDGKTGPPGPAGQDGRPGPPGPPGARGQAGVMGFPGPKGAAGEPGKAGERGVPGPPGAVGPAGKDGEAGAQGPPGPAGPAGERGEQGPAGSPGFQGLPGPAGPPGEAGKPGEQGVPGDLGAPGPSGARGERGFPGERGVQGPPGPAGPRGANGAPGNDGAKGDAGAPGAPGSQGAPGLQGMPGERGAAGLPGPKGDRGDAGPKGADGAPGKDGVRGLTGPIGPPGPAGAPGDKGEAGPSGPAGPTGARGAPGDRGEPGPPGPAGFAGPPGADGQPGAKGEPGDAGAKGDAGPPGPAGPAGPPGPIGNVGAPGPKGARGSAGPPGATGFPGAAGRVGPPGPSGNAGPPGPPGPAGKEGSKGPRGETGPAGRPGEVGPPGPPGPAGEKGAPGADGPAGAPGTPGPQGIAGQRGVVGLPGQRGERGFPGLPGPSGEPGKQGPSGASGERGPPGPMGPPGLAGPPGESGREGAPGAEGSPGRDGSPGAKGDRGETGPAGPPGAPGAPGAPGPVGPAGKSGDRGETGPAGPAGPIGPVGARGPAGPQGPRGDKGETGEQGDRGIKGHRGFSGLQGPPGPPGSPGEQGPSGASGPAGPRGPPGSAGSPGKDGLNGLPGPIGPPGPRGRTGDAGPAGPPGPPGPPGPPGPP
T2 sequence (P02465 89-1102, chain 2 of 2): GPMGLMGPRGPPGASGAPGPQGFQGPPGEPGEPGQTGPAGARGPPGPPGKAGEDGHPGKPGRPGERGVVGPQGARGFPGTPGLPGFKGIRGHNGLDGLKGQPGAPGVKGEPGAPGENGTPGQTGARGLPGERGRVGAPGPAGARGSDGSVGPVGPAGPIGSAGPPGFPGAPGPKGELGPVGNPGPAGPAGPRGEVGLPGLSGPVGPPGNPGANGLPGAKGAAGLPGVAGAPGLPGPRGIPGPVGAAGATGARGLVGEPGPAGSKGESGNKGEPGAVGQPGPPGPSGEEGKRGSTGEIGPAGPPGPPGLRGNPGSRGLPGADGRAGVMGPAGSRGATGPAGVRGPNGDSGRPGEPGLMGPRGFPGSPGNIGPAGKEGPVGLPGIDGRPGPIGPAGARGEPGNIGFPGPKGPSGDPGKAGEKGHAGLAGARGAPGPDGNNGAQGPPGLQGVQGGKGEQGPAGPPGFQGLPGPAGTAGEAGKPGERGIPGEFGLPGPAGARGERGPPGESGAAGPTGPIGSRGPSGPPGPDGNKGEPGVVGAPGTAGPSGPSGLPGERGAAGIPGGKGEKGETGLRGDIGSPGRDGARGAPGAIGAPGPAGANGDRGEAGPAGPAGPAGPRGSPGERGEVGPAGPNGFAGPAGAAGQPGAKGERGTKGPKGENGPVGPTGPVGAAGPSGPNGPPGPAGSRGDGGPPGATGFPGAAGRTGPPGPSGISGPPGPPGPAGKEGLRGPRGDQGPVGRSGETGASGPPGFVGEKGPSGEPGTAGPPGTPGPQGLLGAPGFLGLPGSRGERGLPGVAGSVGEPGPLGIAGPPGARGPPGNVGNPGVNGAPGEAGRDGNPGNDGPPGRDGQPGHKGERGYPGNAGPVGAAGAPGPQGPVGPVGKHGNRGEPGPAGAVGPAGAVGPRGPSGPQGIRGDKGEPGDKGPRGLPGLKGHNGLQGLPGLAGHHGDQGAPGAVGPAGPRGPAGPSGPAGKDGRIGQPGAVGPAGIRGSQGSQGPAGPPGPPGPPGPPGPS
T6 sequence (P01127 82-190): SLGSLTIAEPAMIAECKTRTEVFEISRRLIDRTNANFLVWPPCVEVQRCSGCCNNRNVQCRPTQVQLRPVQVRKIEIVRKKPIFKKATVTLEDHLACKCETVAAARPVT
T1 sequence (P12643 283-396 limits assumed): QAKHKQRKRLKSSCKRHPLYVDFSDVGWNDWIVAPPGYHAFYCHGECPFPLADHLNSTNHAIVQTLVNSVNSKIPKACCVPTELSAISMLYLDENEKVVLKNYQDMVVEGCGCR
Description for recombinant human BMP-2: ELISA plates (NUNC MaxiSorp) were coated with 50 nM of recombinant human BMP-2 (CHO produced, R&D Systems, Minneapolis MN, USA) overnight at room temperature.

B1: FabCol (Fab)
light: EIVLTQSPGTLSLSPGERATLSCRASQSVSSSYLAWYQQKPGQAPRLLIYGASSRATGIPDRFSGSGSGTDFTLTISRLEPEDFAVYYCQQAIGFPQTFGQGTKVEIKRTVAAPSVFIFPPSDEQLKSGTASVVCLLNNFYPREAKVQWKVDNALQSGNSQESVTEQDSKDSTYSLSSTLTLSKADYEKHKVYACEVTHQGLSSPVTKSFNRGEC
heavy: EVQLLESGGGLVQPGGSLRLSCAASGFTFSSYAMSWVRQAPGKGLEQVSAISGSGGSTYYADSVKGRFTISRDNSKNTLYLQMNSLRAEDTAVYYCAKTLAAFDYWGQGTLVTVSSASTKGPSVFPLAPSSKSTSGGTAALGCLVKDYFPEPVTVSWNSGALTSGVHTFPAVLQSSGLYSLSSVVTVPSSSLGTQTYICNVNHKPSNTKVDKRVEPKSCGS
notes: Human Fab with human Fab constant regions; also called non-conjugated FabCol; anti-collagen I Fab (clone C11)
As for B1, the binding result is reported as “no binding (tested: 50 nM)” with recombinant human BMP-2; “no binding (tested: 100 nM (single concentration))” with mVEGF-C; “no binding (tested: 100 nM (single concentration))” in assay [3]; “no binding (tested: 100 nM (single concentration))” in assay [4]; “no binding (tested: 100 nM (single concentration))” in [5]; “no binding (tested: 100 nM (single concentration))” in assay [6]. Moreover, the entries for the “EC50 (read off the curve)” value with bovine type I collagen [1] and with bovine type I collagen [2] were around 0.2 nM and around 1 nM, respectively. For the same molecule, the figures for the Kd with bovine type I collagen [7] and with bovine type I collagen [8] were 0.3 nM and 0.9 nM, respectively.
In the case of TLPDVGLELEVR (Chemically synthesized (Genscript)) [laminin α5 3539-3550 peptide (LG5)], the binding result in assay [9] is on record as “no binding (tested: 1 µg/mL)”; in assay [10] it was “no binding (tested: 1 µg/mL)”; in assay [11], “binds”; in assay [12] it was “binds”; in assay [13], “binds”; in [14] it was “binds”. Besides, the binding result in [15], in assay [16], in assay [17] and in assay [18] was “no binding (tested: 1 µg/mL)” throughout.

B2: recombinant human VEGF-A145 (ligand, UniProt P15692-6 27-171, looked up)
chain: APMAEGGGQNHHEVVKFMDVYQRSYCHPIETLVDIFQEYPDEIEYIFKPSCVPLMRCGGCCNDEGLECVPTEESNITMQIMRIKPHQGQHIGEMSFLQHNKCECRPKKDRARQEKKSVRGKGKGQKRKRKKSRYKSWSVCDKPRR
Regarding B2, the binding result is listed as “no binding (tested: 1 µg/mL)” in assay [19], “no binding (tested: 1 µg/mL)” in [20], “binds” in the assay with human plasma-derived vWF and “binds” in assay [21].

B3: vWF A1 HBD peptide (23 residues) (peptide)
peptide: YIGLKDRKRPSELRRIASQVKYA
notes: Chemically synthesized (Genscript); also called vWF HBD; vWF A1 peptide
On to B3, for which the binding result in [22] and in assay [23] was “no binding (tested: 1 µg/mL)” throughout.

By EC50 (read off the curve) is commonly meant the concentration that produces a half-maximal response. A higher EC50 (read off the curve) goes with lower potency in that assay. Broadly, the Kd is the free concentration of one partner at which half of the binding sites on the other are occupied at equilibrium, for simple one-to-one binding.

The record behind these values is patent US20240092867A1 (UNIVERSITY OF CHICAGO, published 2024).
